# Source: PMC3299731 (PLoS ONE, 2012)
# How the values were obtained:
# [1] = target: the molecule itself; assay: SEC; purified homomeric 6×His-translin proteins on Superdex 200 10/300 GL calibrated with molecular weight markers (29-440 kDa); octamer
# translin [2] = target: T1, translin (human, UniProt Q15631 1-228); assay: EMSA; 50 nM octamer, 100 nM DNA; 25 mM Tris-HCl pH 8.0, 100 mM NaCl, 1 mM EDTA, 30 min; temperature not stated; 4.5% native PAGE in 0.5x TBE; conditions: protein: recombinant; tags: N-terminal 6xHis; chain copies: 8; label: 5'-32P (unlabeled in agarose EMSA)
# translin [3] = target: T1, translin; assay: UV-laser crosslinking (248 nm); 50 pmol each in 50 uL; 25 mM Tris-HCl pH 8.0, 100 mM NaCl, 1 mM EDTA, 30 min; temperature not stated; 4.5% native PAGE in 0.5x TBE; conditions: protein: recombinant; tags: N-terminal 6xHis; chain copies: 8; label: 5'-32P (unlabeled in agarose EMSA)
Binder,stoichiometry N [1],binding result (translin [2]),binding result (translin [3])
"Mutant of basic-2 motif of human translin, homomeric, N-terminal 6×His tag (natural protein, UniProt Q15631 1-228, looked up, human translin with the B2 motif mutated, expressed from pQE9-translinB2; also called translinB2; translinB2 mutant; source: E. coli BL21(DE3), pQE9-translinB2, purified (Ni-IDA, Q-sepharose, Superdex 200); not shown: 6×His, N-terminal, kept) MSVSEIFVELQGFLAAEQDIREEIRKVVQSLEQTAREILTLLQGVHQGAGFQDIPKRCLKAREHFGTVKTHLTSLKTKFPAEQYYTFNENWRFVLQRLVFLAAFVVYLETETLVTREAVTEILGIEPDREKGFHLDVEDYLSGVLILASELSRLSVNSVTAGDYSRPLHISTFINELDSGFRLLNLKNDSLRKRYDGLKYDVKKVEEVVYDLSIRGFNKETAAACVEK",8,,
"Mutant of basic-3 motif of human translin, homomeric, N-terminal 6×His tag (natural protein, UniProt Q15631 1-228, looked up, human translin with the B3 motif mutated, expressed from pQE9-translinB3; also called translinB3; translinB3 mutant; source: E. coli BL21(DE3), pQE9-translinB3, purified (Ni-IDA, Q-sepharose, Superdex 200); not shown: 6×His, N-terminal, kept) MSVSEIFVELQGFLAAEQDIREEIRKVVQSLEQTAREILTLLQGVHQGAGFQDIPKRCLKAREHFGTVKTHLTSLKTKFPAEQYYRFHEHWRFVLQRLVFLAAFVVYLETETLVTREAVTEILGIEPDREKGFHLDVEDYLSGVLILASELSRLSVNSVTAGDYSRPLHISTFINELDSGFRLLNLKNDSLTNSNDGLKYDVKKVEEVVYDLSIRGFNKETAAACVEK",8,,
GCCCTCCTGCCCTCCTTCCGCGGG (ssDNA) [Bcl-CL1 24-mer],,binds,binds
